From publication PMC6932757, “Inhibition of FLT1 ameliorates muscular dystrophy phenotype by increased vasculature in a mouse model of Duchenne muscular dystrophy” (PLoS Genetics, 2019)

Molecular target: T1, mouse FLT1-FC chimeric protein with His-tag (mouse, UniProt P35969 23-759)
T1 construct: FLT1 (VEGF receptor-1, VEGFR1), mouse, soluble form fused to FC; also called chimeric FLT1-FC; mouse soluble FLT1-FC chimeric protein; source: bought: R&D Systems (471-F1-100)
T1 sequence (looked up): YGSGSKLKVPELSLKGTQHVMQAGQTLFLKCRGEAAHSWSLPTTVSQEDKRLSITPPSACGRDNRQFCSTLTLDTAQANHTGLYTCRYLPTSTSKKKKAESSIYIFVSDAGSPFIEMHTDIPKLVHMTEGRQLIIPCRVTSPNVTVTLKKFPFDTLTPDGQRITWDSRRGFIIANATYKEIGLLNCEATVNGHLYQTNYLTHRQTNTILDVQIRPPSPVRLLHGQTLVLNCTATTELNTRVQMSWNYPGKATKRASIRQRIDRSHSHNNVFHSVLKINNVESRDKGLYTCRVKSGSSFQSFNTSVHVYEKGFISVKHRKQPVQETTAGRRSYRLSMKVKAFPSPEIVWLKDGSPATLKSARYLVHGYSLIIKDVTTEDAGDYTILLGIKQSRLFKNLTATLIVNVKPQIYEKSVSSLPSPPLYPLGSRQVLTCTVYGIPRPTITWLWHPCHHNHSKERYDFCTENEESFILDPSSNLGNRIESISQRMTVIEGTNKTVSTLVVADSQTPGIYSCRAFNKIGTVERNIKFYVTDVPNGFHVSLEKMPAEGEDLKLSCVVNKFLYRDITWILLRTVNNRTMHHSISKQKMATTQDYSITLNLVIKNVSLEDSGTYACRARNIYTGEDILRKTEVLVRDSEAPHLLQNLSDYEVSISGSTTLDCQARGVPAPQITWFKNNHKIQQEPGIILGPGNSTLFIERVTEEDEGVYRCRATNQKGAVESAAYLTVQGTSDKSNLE
Test: ELISA; mouse FLT1-FC (His-tag) coated on 96 well plates, blocked with 5% BSA; anti-FLT1 antibodies incubated, then mouse PlGF2; detected with biotin-conjugated anti-PlGF2 antibody and Streptavidin-HRP, TMB, 450 nm
Conditions: both partners purified

B1: recombinant mouse PlGF2 (ligand, UniProt P49764 19-158, looked up)
chain: VHSQGALSAGNNSTEVEVVPFNEVWGRSYCRPMEKLVYILDEYPDEVSHIFSPSCVLLSRCSGCCGDEGLHCVPIKTANITMQILKIPPNRDPHFYVEMTFSQDVLCECRPILETTKAERRKTKGKRKRSRNSQTEEPHP
notes: Placenta growth factor 2 (PlGF2), mouse, recombinant; probably the mature secreted protein (surmised); source: bought: R&D Systems (465-PL-010/CF)
B1: binds.
